From US20220249369A1, “BIOLOGICAL BITS AS COMPUTABLE ELEMENTS WITHIN LIVING SYSTEMS” (GEORGIA TECH RESEARCH CORPORATION, priority 2018, published 2022)
Where no end group is shown, it is not given here. [ ]: non-standard residue; d: D form. The star is where a group is joined. 5FAM = O=C1OC2(c3ccc(O)cc3Oc3cc(O)ccc32)c2ccc(C(=O)*)cc21

Legend:
plasmin = plasmin (Homo sapiens, UniProt P00747); assay: Protease cleavage assay, U-gate on two-state protease bit; type: biochemical; details: n=3; for state probability (relative cleavage velocity) after first U-gate: plasmin exposed to state 0 and state 1 substrates
Protocol: Protease cleavage assays: All protease cleavage assays were performed with a BioTek Cytation 5 Imaging Plate Reader, taking fluorescent measurements at 485/528 nm and 540/575 nm (excitation/emission) for read-outs measuring peptide substrates terminated with FITC (Fluorescein isothiocyanate) and 5-TAMRA (5-Carboxytetramethylrhodamine), respectively. Kinetic measurements were taken every minute over the course of 60-120 minutes at 37° C. West Nile Virus NS3 protease (WNVp) and Tobacco Etch Virus protease (TEVp), along with their substrates, inhibitors and buffers were obtained from Anaspec, Inc. (Fremont, Calif.). Phospholipase C (PLC), Phosphatidylinositol-Specific (from Bacillus cereus) was purchased from Thermo Fisher Scientific (Waltham, Mass.). Activity RFU measurements were normalized to time 0 measurement, and as such represent fold change in signal. Granzyme B (GzmB) was purchased from PeproTech, Inc. (Rocky Hill, N.J.). Thrombin and Factor XIa were purchased from Haematologic Technologies (Essex, Vt.). Outer Membrane Protease T (OmpT, Protease 7) was purchased from Lifespan Biosciences (Seattle, Wash.). C1r was purchased from Millipore Sigma (Burlington, Mass.). GzmB, Thrombin, Factor XIa, and C1r fluorescent peptide substrates were custom ordered from CPC Scientific (Sunnyvale, Calif.). OmpT fluorescent peptide substrate was custom ordered from Genscript (Piscataway, N.J.). See Table 1 and Table 2 for more information regarding proteases, substrates, and inhibitors.
For FIGS. 5G-5I and 5N-5Q: 2 uL of thrombin (10.1 mg/mL) or plasmin (6.9 mg/mL) were added to 18 uL of respective state 1 or state 0 substrate (2 uM). Velocities of Thrombin and Plasmin cutting their respective state 1 or state 0 substrates were calculated over the first 5 minutes of incubation. These velocities were normalized by the sum of the state 1 and state 0 velocity. Therefore, the values plotted as probability in FIG. 4 are relative velocities. […]

DH5α Escherichia coli = type: cell-based; details: 37° C., 1 hour
Description: FIGS. 8A-8B show the results of unlocking peptide caged liposomes with increasing peptide crosslinking densities (levels 0-8). Eight levels of increasing peptide cage crosslinking were used to determine the number of bacteria required to unlock each level. FIG. 8C is a graph showing bacterial cytotoxicity measurement of drug-loaded liposomes. Conditions are moving from left to right: Bacteria only control, bacteria plus free drug, bacteria plus drug-loaded liposome without lipase, and bacteria plus drug-loaded liposome with lipase. Samples were incubated with bacteria at 37° C. for eight hours and plated. CFU were quantified to estimate bacteria viability. Error bars are plotted as standard deviation (n=3). RFU stands for “Relative Fluorescence Unit” and is plotted as fold change (FC) from initial fluorescence at time=0. Bacterial Culture and Cytotoxicity Assay: DH5α Escherichia coli were cultured in LB broth (Lennox) at 37° C. and plated on LB agar (Lennox) plates. LB broth was purchased from Millipore Sigma (Burlington, Mass.) and LB agar was purchased from Invitrogen (Carlsbad, Calif.). AMP and locked AMP were custom ordered from Genscript (Piscataway, N.J.). […] Bacterial cell viability was measured by making eight 10-fold serial dilutions, and plating three 10 μL spots on an LB agar plate. Plates were incubated overnight at 37° C., and CFUs were counted. […]

plasmin, sequence (P00747 581-810 limits assumed, species assumed): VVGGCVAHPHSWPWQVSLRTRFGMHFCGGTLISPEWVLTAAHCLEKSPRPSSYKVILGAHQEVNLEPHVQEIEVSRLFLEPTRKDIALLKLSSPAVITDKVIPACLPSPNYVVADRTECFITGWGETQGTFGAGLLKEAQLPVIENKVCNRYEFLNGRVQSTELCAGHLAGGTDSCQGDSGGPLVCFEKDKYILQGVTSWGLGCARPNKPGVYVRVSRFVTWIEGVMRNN
plasmin, sequence (P00747 97-580 partner limits assumed, species assumed): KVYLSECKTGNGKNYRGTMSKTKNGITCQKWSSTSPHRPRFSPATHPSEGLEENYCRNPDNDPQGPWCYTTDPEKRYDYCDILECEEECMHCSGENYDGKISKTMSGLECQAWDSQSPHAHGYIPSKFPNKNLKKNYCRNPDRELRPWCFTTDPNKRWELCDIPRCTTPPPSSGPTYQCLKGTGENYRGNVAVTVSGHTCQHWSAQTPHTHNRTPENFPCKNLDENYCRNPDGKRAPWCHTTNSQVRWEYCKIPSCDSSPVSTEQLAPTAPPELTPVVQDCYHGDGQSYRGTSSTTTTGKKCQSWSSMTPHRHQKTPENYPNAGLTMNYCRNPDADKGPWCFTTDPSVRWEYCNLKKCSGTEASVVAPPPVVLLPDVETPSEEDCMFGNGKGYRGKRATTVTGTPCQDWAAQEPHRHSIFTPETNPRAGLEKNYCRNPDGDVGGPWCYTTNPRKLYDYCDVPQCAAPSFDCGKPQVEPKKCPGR

Row | state probability (relative cleavage velocity) after first U-gate (plasmin) [%] | state 0 probability (relative cleavage velocity) after second U-gate (plasmin; state 0 substrate added in large molar excess) [%] | Substance | cytolytic activity against bacteria compared to untreated controls (DH5α Escherichia coli; locked drug without protease) | reduction in bacterial colonies (DH5α Escherichia coli; protease-cleaved (TEVp))
1 | 45 | 93 | 5FAM-GLQRALEI-K(CPQ2)-k-C (5FAM-GLQRALEIK(CPQ2)[dK]C) [CC9, quenched fluorescent plasmin substrate (state 0)] | – | –
2 | – | – | EEEEEEEEENLYFQGRRRRRRRRR [Locked AMP p1, polyarginine AMP locked by polyglutamic acid via TEV-cleavable linker] | no significant cytolytic activity | significant reduction in bacterial colonies
3 | 55 | – | 5FAM-KYLGRSYKV-K(CPQ2)-C (5FAM-KYLGRSYKVK(CPQ2)C) [CC6, quenched fluorescent protease substrate (state 1)] | – | –
